Source: the supplement of paper PMC10065799, “High-throughput profiling of sequence recognition by tyrosine kinases and SH2 domains using bacterial peptide display” (eLife, 2023)

Experiments:
c-Src SH2 = experiment: SH2 binding enrichment of the phosphorylated peptide, bacterial display (enrichment ratio); higher = better substrate or ligand; peptides without Tyr show the background
SHP2-C SH2 = experiment: as above
Grb2 SH2 = Grb2 SH2 (UniProt P62993); experiment: as above
c-Src = experiment: phosphorylation enrichment, bacterial display (enrichment ratio); higher = better substrate or ligand; peptides without Tyr show the background
Jak2 = Jak2 (UniProt O60674); experiment: as above
FGFR3 = FGFR3 (UniProt P22607); experiment: as above
Fer (mouse) = experiment: as above
Hck = Hck (UniProt P08631); experiment: as above
AncSZ = experiment: as above
EPHB1 = EPHB1 (UniProt P54762); experiment: as above
Fes = Fes (UniProt P07332); experiment: as above
FGFR1 = FGFR1 (UniProt P11362); experiment: as above
c-Abl (mouse) = experiment: as above
MERTK = MERTK (UniProt Q12866); experiment: as above
EPHB2 = EPHB2 (UniProt P29323); experiment: as above
Fyn = Fyn (UniProt P06241); experiment: as above
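Wherever SH2 binding enrichment of the phosphorylated peptide, bacterial display is given: peptide library displayed on the E. coli surface as eCPX fusions, selected cells deep-sequenced, score is each peptide's frequency after selection divided by its frequency in the input.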
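Wherever phosphorylation enrichment, bacterial display is given: 11-residue human phosphosite peptides and single-mutation variants displayed on the E. coli surface, counted by deep sequencing, each peptide's frequency after selection divided by its frequency in the unselected input library; frequency after pTyr selection over input frequency; kinase dosed for 20-30% of maximal phosphorylation in three min.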

Sequence of EPHB1 (P54762 whole entry, looked up): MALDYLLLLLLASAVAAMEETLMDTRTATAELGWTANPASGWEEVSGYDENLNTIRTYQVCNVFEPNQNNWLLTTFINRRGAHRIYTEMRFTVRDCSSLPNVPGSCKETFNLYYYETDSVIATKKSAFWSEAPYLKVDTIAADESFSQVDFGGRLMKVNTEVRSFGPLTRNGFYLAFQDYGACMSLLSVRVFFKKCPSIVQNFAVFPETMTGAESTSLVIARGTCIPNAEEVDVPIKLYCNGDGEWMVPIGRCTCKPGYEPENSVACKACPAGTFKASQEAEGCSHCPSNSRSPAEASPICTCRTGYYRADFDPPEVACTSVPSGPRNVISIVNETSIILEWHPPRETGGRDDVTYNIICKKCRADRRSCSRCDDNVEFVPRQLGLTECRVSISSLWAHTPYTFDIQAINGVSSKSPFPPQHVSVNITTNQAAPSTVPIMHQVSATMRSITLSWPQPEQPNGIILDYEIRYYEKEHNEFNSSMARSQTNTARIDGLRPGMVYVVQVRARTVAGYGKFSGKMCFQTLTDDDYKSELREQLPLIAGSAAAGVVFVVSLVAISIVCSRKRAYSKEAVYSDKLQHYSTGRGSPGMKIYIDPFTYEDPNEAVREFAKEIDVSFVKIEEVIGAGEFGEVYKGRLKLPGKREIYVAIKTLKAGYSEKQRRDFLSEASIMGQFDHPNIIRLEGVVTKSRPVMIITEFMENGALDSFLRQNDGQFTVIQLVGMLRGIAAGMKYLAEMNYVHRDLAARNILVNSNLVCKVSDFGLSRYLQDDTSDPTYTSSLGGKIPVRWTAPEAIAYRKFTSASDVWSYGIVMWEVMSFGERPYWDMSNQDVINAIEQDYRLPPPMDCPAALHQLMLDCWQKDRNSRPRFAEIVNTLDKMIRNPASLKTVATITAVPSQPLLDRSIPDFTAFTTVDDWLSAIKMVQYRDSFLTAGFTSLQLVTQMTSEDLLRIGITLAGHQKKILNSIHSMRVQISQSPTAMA
Sequence of Jak2 (O60674 whole entry, looked up): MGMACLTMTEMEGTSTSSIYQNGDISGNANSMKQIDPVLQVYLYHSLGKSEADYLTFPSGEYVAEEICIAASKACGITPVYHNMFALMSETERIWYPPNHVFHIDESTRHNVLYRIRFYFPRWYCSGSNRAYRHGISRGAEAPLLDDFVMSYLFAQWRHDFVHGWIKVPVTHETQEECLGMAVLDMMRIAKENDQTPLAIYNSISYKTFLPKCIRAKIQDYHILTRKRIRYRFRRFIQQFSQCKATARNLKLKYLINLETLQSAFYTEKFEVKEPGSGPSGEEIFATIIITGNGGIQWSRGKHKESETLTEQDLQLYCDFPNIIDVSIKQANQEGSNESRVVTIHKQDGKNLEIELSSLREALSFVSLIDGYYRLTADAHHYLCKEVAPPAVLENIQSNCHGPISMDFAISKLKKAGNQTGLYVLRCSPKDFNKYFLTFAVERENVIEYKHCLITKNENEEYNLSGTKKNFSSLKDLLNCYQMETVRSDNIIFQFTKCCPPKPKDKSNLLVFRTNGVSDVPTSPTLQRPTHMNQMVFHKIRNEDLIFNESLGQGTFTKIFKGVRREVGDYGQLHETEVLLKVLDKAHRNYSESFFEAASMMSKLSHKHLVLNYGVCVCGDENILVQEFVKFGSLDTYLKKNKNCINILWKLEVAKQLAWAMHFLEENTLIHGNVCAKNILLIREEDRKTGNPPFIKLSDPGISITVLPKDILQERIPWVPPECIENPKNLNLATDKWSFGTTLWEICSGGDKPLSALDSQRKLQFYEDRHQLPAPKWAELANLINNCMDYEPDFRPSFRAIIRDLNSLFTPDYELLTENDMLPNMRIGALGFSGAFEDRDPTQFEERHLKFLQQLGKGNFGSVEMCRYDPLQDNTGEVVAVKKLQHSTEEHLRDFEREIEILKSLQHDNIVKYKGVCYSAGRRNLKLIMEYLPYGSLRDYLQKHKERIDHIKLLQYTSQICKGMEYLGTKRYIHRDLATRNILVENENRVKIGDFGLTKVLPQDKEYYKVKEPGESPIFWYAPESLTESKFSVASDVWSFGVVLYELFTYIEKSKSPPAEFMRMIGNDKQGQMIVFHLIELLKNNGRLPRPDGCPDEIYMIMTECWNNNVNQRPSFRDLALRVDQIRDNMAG
Sequence of FGFR3 (P22607 whole entry, looked up): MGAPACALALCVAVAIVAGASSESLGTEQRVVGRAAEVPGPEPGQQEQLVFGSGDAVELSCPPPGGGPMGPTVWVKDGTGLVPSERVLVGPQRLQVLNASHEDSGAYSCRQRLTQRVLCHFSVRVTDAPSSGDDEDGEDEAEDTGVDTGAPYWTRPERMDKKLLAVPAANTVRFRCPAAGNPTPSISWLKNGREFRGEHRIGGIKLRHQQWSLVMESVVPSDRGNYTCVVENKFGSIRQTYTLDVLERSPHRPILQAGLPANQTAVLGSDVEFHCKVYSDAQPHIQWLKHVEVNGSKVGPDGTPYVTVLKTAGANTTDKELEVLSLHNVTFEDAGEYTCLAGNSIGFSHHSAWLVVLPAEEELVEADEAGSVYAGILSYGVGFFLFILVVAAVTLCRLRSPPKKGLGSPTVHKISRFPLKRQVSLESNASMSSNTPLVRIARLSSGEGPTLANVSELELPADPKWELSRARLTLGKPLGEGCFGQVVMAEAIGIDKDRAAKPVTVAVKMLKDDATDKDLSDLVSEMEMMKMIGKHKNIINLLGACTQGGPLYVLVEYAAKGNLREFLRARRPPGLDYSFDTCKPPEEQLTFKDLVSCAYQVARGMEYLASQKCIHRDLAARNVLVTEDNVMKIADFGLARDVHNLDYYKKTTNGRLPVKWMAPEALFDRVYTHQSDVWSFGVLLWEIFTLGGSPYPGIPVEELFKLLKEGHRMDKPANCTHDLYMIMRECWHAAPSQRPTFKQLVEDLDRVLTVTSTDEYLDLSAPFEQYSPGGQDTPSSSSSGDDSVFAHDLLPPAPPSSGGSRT
Sequence of Hck (P08631 whole entry, looked up): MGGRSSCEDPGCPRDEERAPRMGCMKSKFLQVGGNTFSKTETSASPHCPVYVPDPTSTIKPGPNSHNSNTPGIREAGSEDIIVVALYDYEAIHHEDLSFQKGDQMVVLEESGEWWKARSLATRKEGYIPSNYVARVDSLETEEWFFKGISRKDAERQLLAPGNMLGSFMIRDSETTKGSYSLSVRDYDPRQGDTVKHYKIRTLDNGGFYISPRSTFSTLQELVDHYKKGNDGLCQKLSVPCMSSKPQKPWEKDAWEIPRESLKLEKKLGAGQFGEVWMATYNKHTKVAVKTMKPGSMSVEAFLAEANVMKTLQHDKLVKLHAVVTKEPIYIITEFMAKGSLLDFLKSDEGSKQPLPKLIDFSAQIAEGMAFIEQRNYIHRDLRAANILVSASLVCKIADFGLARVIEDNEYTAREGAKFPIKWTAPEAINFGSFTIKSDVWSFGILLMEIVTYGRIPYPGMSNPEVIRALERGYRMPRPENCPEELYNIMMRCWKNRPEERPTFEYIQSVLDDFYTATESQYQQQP
Sequence of Fes (P07332 whole entry, looked up): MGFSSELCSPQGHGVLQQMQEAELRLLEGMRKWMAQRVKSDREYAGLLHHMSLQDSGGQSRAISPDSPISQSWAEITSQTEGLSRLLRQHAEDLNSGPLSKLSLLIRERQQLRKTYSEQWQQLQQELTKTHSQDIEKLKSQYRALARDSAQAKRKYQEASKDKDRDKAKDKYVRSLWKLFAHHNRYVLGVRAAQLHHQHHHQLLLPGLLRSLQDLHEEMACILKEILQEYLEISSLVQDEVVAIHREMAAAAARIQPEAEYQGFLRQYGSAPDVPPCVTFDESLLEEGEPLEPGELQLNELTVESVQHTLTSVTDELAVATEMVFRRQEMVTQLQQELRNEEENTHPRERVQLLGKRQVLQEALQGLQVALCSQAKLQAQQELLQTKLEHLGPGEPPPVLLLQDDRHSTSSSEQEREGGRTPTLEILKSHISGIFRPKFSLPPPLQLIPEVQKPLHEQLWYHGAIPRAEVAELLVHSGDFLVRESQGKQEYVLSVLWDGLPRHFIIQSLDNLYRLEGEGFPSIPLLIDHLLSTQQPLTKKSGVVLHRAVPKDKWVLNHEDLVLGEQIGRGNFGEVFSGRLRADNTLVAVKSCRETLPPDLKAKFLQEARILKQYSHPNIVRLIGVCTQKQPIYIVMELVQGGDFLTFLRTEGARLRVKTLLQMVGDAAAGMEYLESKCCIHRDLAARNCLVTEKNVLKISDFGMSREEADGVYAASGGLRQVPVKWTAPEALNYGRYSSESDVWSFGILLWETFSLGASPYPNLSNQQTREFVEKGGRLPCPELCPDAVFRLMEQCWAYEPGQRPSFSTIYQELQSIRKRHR
Sequence of FGFR1 (P11362 whole entry, looked up): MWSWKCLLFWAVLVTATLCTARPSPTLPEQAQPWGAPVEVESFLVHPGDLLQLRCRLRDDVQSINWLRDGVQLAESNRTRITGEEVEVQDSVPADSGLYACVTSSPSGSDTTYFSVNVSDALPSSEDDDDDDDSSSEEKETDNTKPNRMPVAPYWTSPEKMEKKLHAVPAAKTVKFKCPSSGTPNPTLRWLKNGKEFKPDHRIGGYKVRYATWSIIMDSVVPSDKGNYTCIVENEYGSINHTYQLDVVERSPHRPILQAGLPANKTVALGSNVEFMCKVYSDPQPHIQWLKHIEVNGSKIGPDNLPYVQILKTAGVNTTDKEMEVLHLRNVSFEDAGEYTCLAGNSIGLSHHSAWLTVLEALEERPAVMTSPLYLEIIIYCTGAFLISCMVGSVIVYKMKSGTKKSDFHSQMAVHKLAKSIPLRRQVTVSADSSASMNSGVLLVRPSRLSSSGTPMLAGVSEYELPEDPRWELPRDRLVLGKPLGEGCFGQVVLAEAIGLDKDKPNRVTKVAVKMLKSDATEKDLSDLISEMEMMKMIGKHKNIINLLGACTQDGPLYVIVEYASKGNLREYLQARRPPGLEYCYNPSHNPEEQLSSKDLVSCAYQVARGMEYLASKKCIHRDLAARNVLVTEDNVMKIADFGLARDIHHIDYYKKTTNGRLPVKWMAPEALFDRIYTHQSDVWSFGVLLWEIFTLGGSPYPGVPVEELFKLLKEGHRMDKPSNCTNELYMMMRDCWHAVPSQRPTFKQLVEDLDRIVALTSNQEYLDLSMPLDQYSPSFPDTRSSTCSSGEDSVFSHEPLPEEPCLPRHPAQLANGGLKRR

SH2 binding enrichment (c-Src SH2) | SH2 binding enrichment (SHP2-C SH2) | SH2 binding enrichment (Grb2 SH2) | Sequence | phosphorylation enrichment (c-Src) | phosphorylation enrichment (Jak2) | phosphorylation enrichment (FGFR3) | phosphorylation enrichment (Fer (mouse)) | phosphorylation enrichment (Hck) | phosphorylation enrichment (AncSZ) | phosphorylation enrichment (EPHB1) | phosphorylation enrichment (Fes) | phosphorylation enrichment (FGFR1) | phosphorylation enrichment (c-Abl (mouse)) | phosphorylation enrichment (MERTK) | phosphorylation enrichment (EPHB2) | phosphorylation enrichment (Fyn)
1.01 | 1.53 | 1.68 | LIFVSYDDWDF [GRIN2A_Y281_S278F_YF] | 1.79 | 4.29 | 2.55 | 17.4 | 1.1 | 4.68 | 2.23 | 4.34 | 1.38 | 2.77 | 2.03 | 2.89 | 1.02
0.437 | 0.593 | 0.766 | SARFRYLLAEK [LDHB_Y173_M175L] | 0.515 | 0.641 | 0.55 | 0.452 | 0.508 | 0.724 | 0.35 | 0.697 | 0.439 | 0.783 | 0.498 | 0.477 | 0.514
0.506 | 0.643 | 0.93 | LARDMYDKEFF [MET_Y1230_YF] | 0.382 | 0.702 | 0.596 | 0.464 | 0.539 | 0.685 | 0.515 | 0.945 | 0.517 | 0.519 | 0.396 | 0.564 | 0.507
0.609 | 0.82 | 0.643 | DKATEYSQYMR [MAX_Y70_I71S] | 0.745 | 0.636 | 0.541 | 0.499 | 0.556 | 0.87 | 0.45 | 0.864 | 0.531 | 0.677 | 0.473 | 0.525 | 0.571
8.7 | 0.874 | 1.08 | LTKQEYDEAGP [ACTA1_Y364_I359L] | 0.996 | 1.62 | 1.07 | 0.638 | 1.15 | 2.03 | 0.696 | 1.71 | 0.811 | 1.39 | 0.817 | 1.23 | 0.809
0.778 | 1.03 | 0.845 | MFFSTYDRDND [FGB_Y408] | 0.589 | 1.03 | 0.601 | 0.501 | 0.511 | 0.849 | 0.541 | 1.05 | 0.673 | 0.84 | 0.408 | 0.578 | 0.426
1.37 | 0.614 | 0.881 | LARDMYDKEYY [MET_Y1230] | 0.673 | 1.41 | 0.973 | 0.71 | 0.765 | 1.83 | 0.815 | 1.43 | 0.921 | 0.652 | 0.449 | 0.627 | 0.624
0.589 | 0.533 | 0.974 | YSKTQYNQVPR [CXADR_Y318_S323R] | 0.462 | 0.451 | 0.532 | 0.471 | 0.487 | 0.531 | 0.315 | 0.542 | 0.421 | 0.465 | 0.514 | 0.431 | 0.319
0.798 | 0.95 | 0.871 | HNELYYEEAEH [VANGL1_Y345] | 0.708 | 1.32 | 2.08 | 1.81 | 0.798 | 2.06 | 1.21 | 1.53 | 1.63 | 0.936 | 1.11 | 0.993 | 0.751
0.607 | 0.787 | 0.876 | AELVPYFMEHH [PTPN11_Y80_Q79P_YF] | 0.883 | 1.02 | 0.614 | 0.515 | 0.562 | 0.913 | 0.605 | 1.15 | 0.531 | 0.741 | 0.463 | 0.602 | 0.636
0.931 | 1.17 | 0.934 | TQKLAYMELQQ [CENPF_Y700] | 0.509 | 0.794 | 0.629 | 0.513 | 0.52 | 0.776 | 0.482 | 0.907 | 0.596 | 0.94 | 0.527 | 0.454 | 0.455
0.519 | 0.935 | 1.14 | LDAFIYDAAVL [GRIN2A_Y730] | 6.55 | 0.827 | 0.868 | 20.3 | 7.32 | 1.18 | 2.63 | 1.53 | 0.879 | 6.28 | 3.04 | 3 | 9.56
0.409 | 0.488 | 0.638 | AKKKMYSRKTK [AGXT_Y231] | 0.42 | 0.455 | 0.476 | 0.443 | 0.496 | 0.595 | 0.437 | 0.505 | 0.546 | 0.478 | 0.457 | 0.385 | 0.431
0.617 | 0.69 | 0.685 | MDNQEYKDAFT [BRDT_Y331_K336T_YF] | 0.458 | 1.15 | 0.802 | 0.539 | 0.488 | 1.14 | 0.56 | 1.3 | 0.539 | 0.737 | 0.402 | 0.913 | 0.486
0.415 | 0.53 | 0.761 | LNERHYGGLTG [PGAM2_Y92] | 0.47 | 4.09 | 0.552 | 0.394 | 0.454 | 0.679 | 0.417 | 0.856 | 0.607 | 0.789 | 0.527 | 0.432 | 0.53
0.479 | 0.81 | 0.834 | RPFSPYIIRGM [LRP5_Y1531_R1529S_YF] | 0.886 | 0.92 | 0.71 | 0.494 | 0.719 | 1.29 | 0.752 | 0.991 | 0.785 | 0.595 | 0.494 | 0.535 | 0.98
0.813 | 0.814 | 0.876 | DLNATYRTIQG [U2SURP_Y634] | 0.674 | 0.609 | 0.6 | 0.518 | 0.688 | 0.631 | 0.578 | 0.846 | 0.583 | 0.641 | 0.473 | 0.751 | 0.646

SH2 binding enrichment (c-Src SH2) | SH2 binding enrichment (SHP2-C SH2) | SH2 binding enrichment (Grb2 SH2) | Sequence | phosphorylation enrichment (c-Src) | phosphorylation enrichment (Jak2) | phosphorylation enrichment (FGFR3) | phosphorylation enrichment (Fer (mouse)) | phosphorylation enrichment (Hck) | phosphorylation enrichment (AncSZ) | phosphorylation enrichment (EPHB1) | phosphorylation enrichment (Fes) | phosphorylation enrichment (FGFR1) | phosphorylation enrichment (c-Abl (mouse)) | phosphorylation enrichment (MERTK) | phosphorylation enrichment (EPHB2) | phosphorylation enrichment (Fyn)
0.693 | 0.656 | 0.968 | FETNVYVDKNL [PTCHD3_Y688_K685T] | 0.36 | 0.53 | 0.623 | 0.482 | 0.578 | 0.996 | 0.546 | 0.938 | 0.436 | 1.01 | 0.411 | 0.539 | 0.54
0.425 | 0.748 | 0.776 | ATDLAYFLVCK [ASL_Y375_R379C_YF] | 0.655 | 2.42 | 1.26 | 0.698 | 0.674 | 1.6 | 0.789 | 1.61 | 1.16 | 1.1 | 0.517 | 0.617 | 0.564
0.493 | 0.799 | 0.663 | RLLVVYRWTQR [HBB_Y36_P37R] | 0.402 | 0.926 | 0.761 | 0.711 | 0.567 | 1.56 | 0.372 | 1.25 | 0.652 | 0.601 | 0.463 | 0.787 | 0.639
0.503 | 0.895 | 0.871 | GAAMLYFPSVS [GPR143_Y177_YF] | 0.56 | 1.36 | 0.736 | 0.437 | 0.512 | 0.613 | 0.465 | 0.764 | 0.66 | 0.535 | 0.732 | 0.423 | 0.445
0.768 | 0.854 | 0.8 | FMYKVYSDPQP [FGFR1_Y280_C277Y] | 0.495 | 0.819 | 0.642 | 0.532 | 0.569 | 1.03 | 0.778 | 1.16 | 0.461 | 0.521 | 0.5 | 0.799 | 0.526
0.525 | 0.558 | 0.746 | SSMSDYNPLEK [MYOC_Y479_I477S] | 0.439 | 0.756 | 0.581 | 0.558 | 0.525 | 0.87 | 0.501 | 0.876 | 0.506 | 0.657 | 0.425 | 0.515 | 0.47
0.782 | 0.968 | 1.34 | GTFVIYVRFGG [FLNB_Y1687_YF] | 0.465 | 0.711 | 0.731 | 0.4 | 0.433 | 1.15 | 0.392 | 1.18 | 0.52 | 0.854 | 0.379 | 0.49 | 0.353
0.751 | 0.842 | 0.902 | PIYLYYLMDLS [ITGB2_Y131_D128Y] | 6.42 | 8.11 | 13.9 | 4.54 | 4.44 | 4.09 | 7.52 | 3.42 | 13.6 | 3.32 | 11.1 | 6.17 | 5.41
0.376 | 0.435 | 0.674 | MTEEQYIKMNR [ARFGEF2_Y797_K794E] | 0.441 | 1.02 | 0.638 | 0.524 | 0.493 | 0.941 | 0.478 | 1.09 | 0.558 | 0.612 | 0.386 | 0.502 | 0.451
0.752 | 1.4 | 1 | RQSTLYSFFPT [MSH6_Y8_K13T] | 7.3 | 0.824 | 7.04 | 14.2 | 9.63 | 1.35 | 16.1 | 1.26 | 9.72 | 3.62 | 16.8 | 21.2 | 7.89
9.04 | 0.888 | 1.34 | ARLEYYENEKK [IRS1_Y47] | 0.528 | 0.849 | 0.733 | 0.491 | 0.482 | 1.08 | 0.686 | 1.01 | 0.592 | 0.808 | 0.571 | 0.506 | 0.595
0.44 | 1.05 | 0.917 | QTPVLYAMLYH [MPZ_Y220_D224Y] | 3.4 | 1.89 | 4.53 | 8.03 | 5.44 | 1.1 | 9.9 | 1.43 | 5.59 | 2.58 | 8.33 | 6.54 | 4.4
0.445 | 0.656 | 1 | PLLTDYSPQLQ [OTC_Y345_S340P] | 0.616 | 0.964 | 1.19 | 0.879 | 0.951 | 1.54 | 1.11 | 1.9 | 1.19 | 1.02 | 0.965 | 1.17 | 0.698
0.465 | 0.708 | 0.792 | GPQGFYSNKLV [PTPN14_Y506_V505F] | 0.45 | 0.445 | 0.406 | 0.409 | 0.393 | 0.529 | 0.307 | 0.441 | 0.369 | 0.586 | 0.641 | 0.387 | 0.348
1.74 | 1.57 | 1.35 | KWRGQYDVAIR [BTK_Y425_K430R] | 0.389 | 0.461 | 0.533 | 0.512 | 0.451 | 0.96 | 0.498 | 0.698 | 0.426 | 0.539 | 0.341 | 0.454 | 0.446
0.424 | 0.451 | 0.622 | SASRSYSRSRS [SRRM4_Y549] | 0.588 | 0.58 | 0.497 | 0.505 | 0.503 | 0.635 | 0.466 | 0.594 | 0.426 | 0.659 | 0.589 | 0.521 | 0.518
